For experiment [1], the target named is T1, hDII4-mFc (human, UniProt Q9NR61 27-524).
T1 construct: also called dimeric DII4-mFc; not shown: mouse Fc
The experiment is described as follows: SPR BIACORE; antibody captured by anti-hFc; dimeric DII4-mFc analyte. The procedure: (§1) Equilibrium dissociation constants (KD values) for antigen binding to the selected antibodies described above were determined by surface kinetics on a real-time biosensor surface plasmon resonance assay (BIACORE™ 2000). The antibody was captured on a goat anti-mouse IgG polyclonal antibody surface created through direct chemical coupling to a BIACORE™ chip to form a captured antibody surface. […] Kinetic analysis was performed to calculate KD, dissociation rate constants, and half-life of antigen/antibody complex dissociation (Table 1). […] Antibodies were presented by goat anti-hFc polyclonal antibody reagent (Jackson Immuno Research Lab) immobilized on BIACORE™ chip, and exposed to either dimeric DII4-mFc or monomeric DII4 protein (Table 2).

For a further experiment, the target named is T2, dimeric hDII4-hFc (human, UniProt Q9NR61 27-524, biotin in Example 3 (biotin-DII4-hFc), site not stated).
T2 construct: also called DII4-Fc; biotin-DII4-hFc; not shown: human Fc
The experiment is described as follows: competition ELISA; antibody titrated against 25 pM biotin-DII4-hFc; free biotin-DII4-hFc on Notch-hFc plate. Here is the method:
The ability of the antibodies to block DII4 binding to Notch was evaluated with an ELISA-based immunoassay. Briefly, Notch-hFc recombinant protein was coated on a 96-well plate in PBS buffer overnight at 4° C. at […], and the nonspecific binding sites were blocked with BSA.

Experiment [2] has as its target T3, monomeric hDII4 (human delta-like ligand 4) (human, UniProt Q9NR61 27-524).
T3 construct: also called monomeric DII4 protein
The experiment is described as follows: SPR BIACORE; antibody captured by anti-hFc; monomeric DII4 analyte. The procedure: as §1

In experiment [3] the target is T4, hDII3-hFc (human delta-like ligand 3 fused to human Fc) (human, UniProt Q9NYJ7 27-490).
T4 construct: not shown: human Fc
T4 sequence: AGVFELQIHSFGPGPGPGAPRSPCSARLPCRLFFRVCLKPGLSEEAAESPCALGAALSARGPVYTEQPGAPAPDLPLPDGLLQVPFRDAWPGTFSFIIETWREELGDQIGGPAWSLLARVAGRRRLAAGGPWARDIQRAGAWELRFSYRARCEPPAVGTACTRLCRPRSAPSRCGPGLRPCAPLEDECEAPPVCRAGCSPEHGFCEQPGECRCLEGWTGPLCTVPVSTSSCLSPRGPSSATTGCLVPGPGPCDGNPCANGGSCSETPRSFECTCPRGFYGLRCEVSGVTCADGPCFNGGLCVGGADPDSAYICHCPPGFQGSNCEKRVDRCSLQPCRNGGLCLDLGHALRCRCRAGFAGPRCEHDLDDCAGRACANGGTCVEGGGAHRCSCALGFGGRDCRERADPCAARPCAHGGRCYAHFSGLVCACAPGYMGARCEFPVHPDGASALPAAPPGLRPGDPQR
The experiment is described as follows: OCTET; antibody captured by biotin-anti-hK on streptavidin biosensor. Here is the method: Briefly, strepavidin high binding FA biosensors (ForteBio, Inc., Menlo Park, Calif.) were first incubated with biotin-anti-hK at 5 μg/ml for 10 min at 30° C., to achieve saturation. […] Changes in the thickness of the biological layer after each incubation were measured.

Experiment [4] concerns the target T5, hDII1-hFc (human delta-like ligand 1 fused to human Fc) (human, UniProt O00548 18-544).
T5 construct: not shown: human Fc
T5 sequence: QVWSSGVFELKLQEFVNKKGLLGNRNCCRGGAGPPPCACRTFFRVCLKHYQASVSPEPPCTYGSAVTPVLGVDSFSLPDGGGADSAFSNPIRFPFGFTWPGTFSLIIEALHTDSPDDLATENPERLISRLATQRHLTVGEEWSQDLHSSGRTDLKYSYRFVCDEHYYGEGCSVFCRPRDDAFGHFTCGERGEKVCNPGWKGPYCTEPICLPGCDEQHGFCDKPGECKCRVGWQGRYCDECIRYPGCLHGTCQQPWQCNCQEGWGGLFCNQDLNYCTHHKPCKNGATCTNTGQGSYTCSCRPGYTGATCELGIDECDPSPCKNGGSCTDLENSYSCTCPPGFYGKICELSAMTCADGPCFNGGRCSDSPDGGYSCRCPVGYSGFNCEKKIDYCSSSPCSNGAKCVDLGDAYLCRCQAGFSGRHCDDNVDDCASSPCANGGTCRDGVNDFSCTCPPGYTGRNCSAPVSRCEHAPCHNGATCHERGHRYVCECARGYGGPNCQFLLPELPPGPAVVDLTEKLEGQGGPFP
The experiment is described as follows: SPR BIACORE; antibody captured by anti-human kappa; hDII1-hFc analyte. The procedure:
Cross-reactivity of the antibodies to human delta-like ligand1 (SEQ ID NO:953) and human delta-like ligand 3 (SEQ ID NO:954) proteins was determined.

Experiment [5] has as its target T1, hDII4-mFc. The experiment is described as follows: SPR BIACORE; antibody captured by anti-hFc; dimer analyte.
The next experiment has as its target T6, mmDII4-mFc (M. mulatta, UniProt Q9NR61 27-524 (human entry)).
T6 construct: also called mmDII4 dimer; not shown: mouse Fc
T6 chain: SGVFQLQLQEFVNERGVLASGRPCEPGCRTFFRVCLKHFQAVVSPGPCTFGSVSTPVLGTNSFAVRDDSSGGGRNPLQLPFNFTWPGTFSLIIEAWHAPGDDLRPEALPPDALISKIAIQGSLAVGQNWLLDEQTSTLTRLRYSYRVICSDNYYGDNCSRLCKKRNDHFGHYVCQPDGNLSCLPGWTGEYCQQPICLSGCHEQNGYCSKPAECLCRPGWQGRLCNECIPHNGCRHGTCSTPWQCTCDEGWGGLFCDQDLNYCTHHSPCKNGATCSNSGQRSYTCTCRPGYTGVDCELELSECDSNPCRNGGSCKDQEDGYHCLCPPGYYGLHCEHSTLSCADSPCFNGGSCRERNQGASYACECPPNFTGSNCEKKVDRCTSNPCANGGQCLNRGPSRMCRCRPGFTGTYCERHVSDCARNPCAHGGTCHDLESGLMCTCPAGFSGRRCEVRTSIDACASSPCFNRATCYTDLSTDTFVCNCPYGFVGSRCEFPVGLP
Described as above.

The target in experiment [6] is T4, hDII3-hFc (human delta-like ligand 3 …). The experiment is described as follows: SPR BIACORE; ligand amine-coupled to CM-5 chip; antibody injected. The source says:
An alternative BIACORE™ format was used to assess cross-reactivity between anti-hDII4 antibody and either hDII1-hFc or hDII3-hFc.

Changes are numbered by the printed parent chain.

B1: 318518-01A10-D8 (antibody, human IgG1)
heavy: not shown
VL: EIVMTQSPATLSLSPGERATLSCRASQSVSSYLAWYQQKPGQAPRLLIYDASNRATGIPARFSGSGSGTDFTLTISSLEPEDFAVYYCQHRSNWPPTFGGGTKVEIK
notes: HCVR 429 with hIgG1 constant region 950; also called REGN281; 318518-1A10-D8
In the case of B1, the Kd stood at 0.018 nM with hDII4-mFc [1], 0.399 nM in experiment [2], 0.0163 nM with hDII4-mFc [5] and 0.0147 nM with mmDII4-mFc. Besides, the IC50 with dimeric hDII4-hFc was 0.05 nM. Also, the figures for the binding result in experiment [3] and in experiment [4] were “no binding (tested: 200 nM)” and “no binding (tested: 100 µg/ml)”, respectively. The koff with hDII4-mFc [5] turned out to be 4.96e-06 s⁻¹; in the experiment with mmDII4-mFc it was 4.64e-06 s⁻¹. Further, the figures for the kon with hDII4-mFc [5] and with mmDII4-mFc were 302000 M⁻¹ s⁻¹ and 316000 M⁻¹ s⁻¹, respectively.

B2: REGN422 (antibody, human IgG4 S228P)
heavy: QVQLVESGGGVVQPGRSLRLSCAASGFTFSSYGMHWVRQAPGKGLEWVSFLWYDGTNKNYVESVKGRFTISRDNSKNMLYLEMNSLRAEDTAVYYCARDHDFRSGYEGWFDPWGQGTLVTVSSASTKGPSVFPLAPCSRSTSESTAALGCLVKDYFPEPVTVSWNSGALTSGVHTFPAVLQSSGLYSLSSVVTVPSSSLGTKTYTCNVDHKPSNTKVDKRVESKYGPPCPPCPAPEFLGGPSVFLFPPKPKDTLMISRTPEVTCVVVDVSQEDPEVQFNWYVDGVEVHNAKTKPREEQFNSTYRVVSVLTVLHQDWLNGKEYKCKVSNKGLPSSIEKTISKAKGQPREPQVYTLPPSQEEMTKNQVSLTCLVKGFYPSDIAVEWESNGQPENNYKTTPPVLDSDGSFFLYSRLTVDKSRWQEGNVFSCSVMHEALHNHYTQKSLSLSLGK
VL: B1 VL with M4L
notes: HCVR 901 with modified hIgG4 constant region 952
Regarding B2, the binding result in experiment [6] is recorded as “no binding (tested: 300 µg/ml)”. Moreover, the binding result in experiment [4] was “no binding (tested: 100 µg/ml)”. For the same molecule, in the experiment with hDII4-mFc [5], binding was characterised by a dissociation constant (Kd) of 0.0133 nM, the off-rate (koff) was 4.6e-06 s⁻¹ and the kon was 346000 M⁻¹ s⁻¹. Also, in the experiment with mmDII4-mFc, the Kd was 0.0098 nM, the koff was found to be 4.15e-06 s⁻¹ and the kon was 423000 M⁻¹ s⁻¹.

B3: REGN421 (antibody, human IgG1)
heavy: not shown
VL: B1 VL with M4L
notes: HCVR 901 with hIgG1 constant region 950
Consider B3, for which the binding result in experiment [6] was “no binding (tested: 300 µg/ml)”. The binding result in experiment [4] is recorded as “no binding (tested: 100 µg/ml)”. Further, in the experiment with hDII4-mFc [5], the affinity, expressed as Kd, was 0.0137 nM; the koff stood at 4.7e-06 s⁻¹; the kon came out at 343000 M⁻¹ s⁻¹. In the experiment with mmDII4-mFc, this molecule displayed a Kd of 0.013 nM, a koff of 3.8e-06 s⁻¹ and a kon of 335000 M⁻¹ s⁻¹.

The values are drawn from patent US20080181899A1 (Regeneron, published 2008).
